Drawing on paper PMC8038991, “R-catcher, a potent molecular tool to unveil the arginylome” (Cellular and Molecular Life Sciences: CMLS, 2021), this text covers Kd for two molecules.

Common to all, as to experiment: ITC; protein 0.05 mM, 4-mer peptide 1 mM as injectant, B buffer (50 mM Tris-HCl pH 7.5, 200 mM NaCl), 25 °C, Microcal Auto-ITC200; single site-binding model
Experiment [1] addresses purified N132D ZZ fragment p62 (122-175) of the ITC table (Fig. 3b) (human) (UniProt Q13501).
The target of experiment [2] is GST-ZZ_(122-175), wild type, bacterially expressed (human) (UniProt Q13501).
Experiment [3] has as its target purified wild type ZZ fragment p62 (122-175) of the ITC table (Fig. 3b) (human) (UniProt Q13501).

Regarding YIFS [YIFS tetrapeptide (Nt-Tyr)], the Kd in experiment [1] came to 107 µM; in experiment [2], 16.1 µM; in experiment [3] it was 20.7 µM.
For RIFS [RIFS tetrapeptide (Nt-Arg)], in that order: 2.85 µM, 4.4 µM and 6.9 µM.

What is called Kd is the free concentration of one partner at which half of the binding sites on the other are occupied at equilibrium, for simple one-to-one binding. Low readings indicate a tighter complex, high ones a looser complex.
